T1: FLAG-UvrA (E. coli) (E. coli, UniProt P0A698 1-940)
T1 sequence (looked up): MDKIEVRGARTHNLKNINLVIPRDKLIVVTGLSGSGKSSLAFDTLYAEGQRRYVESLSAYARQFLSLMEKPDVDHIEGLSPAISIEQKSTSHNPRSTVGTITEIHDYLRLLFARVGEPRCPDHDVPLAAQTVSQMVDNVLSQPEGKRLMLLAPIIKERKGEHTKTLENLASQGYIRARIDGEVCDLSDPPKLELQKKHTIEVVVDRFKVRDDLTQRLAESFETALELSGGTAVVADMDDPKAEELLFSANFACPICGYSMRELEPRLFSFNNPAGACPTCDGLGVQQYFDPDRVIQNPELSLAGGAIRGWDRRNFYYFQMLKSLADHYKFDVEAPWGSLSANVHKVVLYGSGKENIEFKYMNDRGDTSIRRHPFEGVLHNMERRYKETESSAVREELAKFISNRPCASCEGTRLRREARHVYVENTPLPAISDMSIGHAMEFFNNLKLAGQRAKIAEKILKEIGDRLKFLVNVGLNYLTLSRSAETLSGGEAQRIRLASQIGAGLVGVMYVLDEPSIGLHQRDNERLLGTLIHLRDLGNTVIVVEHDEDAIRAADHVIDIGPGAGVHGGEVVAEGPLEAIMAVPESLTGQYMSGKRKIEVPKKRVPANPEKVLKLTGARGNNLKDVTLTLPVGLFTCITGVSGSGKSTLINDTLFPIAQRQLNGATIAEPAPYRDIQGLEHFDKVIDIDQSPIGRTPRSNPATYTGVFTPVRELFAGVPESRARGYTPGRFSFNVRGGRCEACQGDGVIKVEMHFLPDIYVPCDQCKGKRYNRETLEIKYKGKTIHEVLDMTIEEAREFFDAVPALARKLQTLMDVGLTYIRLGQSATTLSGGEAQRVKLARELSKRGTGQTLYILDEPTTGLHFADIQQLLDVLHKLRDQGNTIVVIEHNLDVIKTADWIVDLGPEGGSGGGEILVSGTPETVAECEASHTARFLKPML

T2: E. coli UvrA (E. coli, UniProt P0A698 1-940)
T2 sequence (looked up): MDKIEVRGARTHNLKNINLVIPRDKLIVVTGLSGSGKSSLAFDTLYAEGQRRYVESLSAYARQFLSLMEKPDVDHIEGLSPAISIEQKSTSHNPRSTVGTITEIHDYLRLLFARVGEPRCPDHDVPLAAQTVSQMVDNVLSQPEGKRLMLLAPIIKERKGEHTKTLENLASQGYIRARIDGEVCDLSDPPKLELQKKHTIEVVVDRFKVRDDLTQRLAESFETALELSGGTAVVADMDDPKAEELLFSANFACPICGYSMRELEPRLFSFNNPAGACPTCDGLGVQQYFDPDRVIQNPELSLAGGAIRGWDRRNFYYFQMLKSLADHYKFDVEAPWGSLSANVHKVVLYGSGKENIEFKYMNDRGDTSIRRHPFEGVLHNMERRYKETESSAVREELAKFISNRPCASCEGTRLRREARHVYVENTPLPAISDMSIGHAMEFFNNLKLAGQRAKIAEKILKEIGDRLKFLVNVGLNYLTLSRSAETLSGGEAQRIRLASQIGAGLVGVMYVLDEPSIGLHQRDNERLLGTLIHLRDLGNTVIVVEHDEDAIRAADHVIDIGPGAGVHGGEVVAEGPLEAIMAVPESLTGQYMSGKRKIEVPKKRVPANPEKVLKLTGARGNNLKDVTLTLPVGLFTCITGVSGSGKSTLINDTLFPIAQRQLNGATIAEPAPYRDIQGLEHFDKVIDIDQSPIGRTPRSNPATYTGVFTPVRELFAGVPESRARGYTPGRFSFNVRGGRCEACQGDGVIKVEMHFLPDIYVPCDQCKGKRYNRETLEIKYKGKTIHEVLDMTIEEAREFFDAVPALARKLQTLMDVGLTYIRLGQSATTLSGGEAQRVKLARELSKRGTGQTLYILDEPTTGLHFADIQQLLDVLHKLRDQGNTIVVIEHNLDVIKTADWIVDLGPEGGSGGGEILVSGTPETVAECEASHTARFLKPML

T3: E. coli UvrC (E. coli, UniProt P0A8G0 1-610)
T3 sequence (looked up): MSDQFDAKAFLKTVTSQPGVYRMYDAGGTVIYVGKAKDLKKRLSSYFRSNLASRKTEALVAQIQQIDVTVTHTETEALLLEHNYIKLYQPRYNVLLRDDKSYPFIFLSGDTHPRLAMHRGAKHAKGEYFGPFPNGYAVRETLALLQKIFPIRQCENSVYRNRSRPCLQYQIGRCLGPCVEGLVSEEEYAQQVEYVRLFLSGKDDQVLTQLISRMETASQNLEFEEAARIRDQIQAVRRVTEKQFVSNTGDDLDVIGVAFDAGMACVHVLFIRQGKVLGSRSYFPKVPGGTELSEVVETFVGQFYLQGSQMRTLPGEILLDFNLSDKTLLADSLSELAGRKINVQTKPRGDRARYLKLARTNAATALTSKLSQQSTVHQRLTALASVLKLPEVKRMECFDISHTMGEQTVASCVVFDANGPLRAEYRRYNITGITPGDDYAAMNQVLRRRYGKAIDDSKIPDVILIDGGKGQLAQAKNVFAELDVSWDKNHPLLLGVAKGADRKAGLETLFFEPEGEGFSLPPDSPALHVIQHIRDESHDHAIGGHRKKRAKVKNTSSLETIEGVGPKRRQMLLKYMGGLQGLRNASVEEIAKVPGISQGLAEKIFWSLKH


What was measured:
Test in all cases: far-Western, overlay or dot blot
[1] = biological target: T1, FLAG-UvrA (E. coli)
[2] = biological target: T2, E. coli UvrA
[3] = biological target: T3, E. coli UvrC

| binding result [1] | binding result [2] | binding result [3] | Binder |
| --- | --- | --- | --- |
| binds | – | – | S. pombe Atl1 (alkyltransferase-like protein 1) (natural protein) MRMDEFYTKVYDAVCEIPYGKVSTYGEIARYVGMPSYARQVGQAMKHLHPETHVPWHRVINSRGTISKRDISAGEQRQKDRLEEEGVEIYQTSLGEYKLNLPEYMWKP |
| – | binds | binds | FLAG-eAtl (E. coli alkyltransferase-like protein) (natural protein, UniProt P0AFP2 1-129, looked up) MLVSCAMRLHSGVFPDYAEKLPQEEKMEKEDSFPQRVWQIVAAIPEGYVTTYGDVAKLAGSPRAARQVGGVLKRLPEGSTLPWHRVVNRHGTISLTGPDLQRQRQALLAEGVMVSGSGQIDLQRYRWNY |

From paper PMC2729916 (Nature, 2009)
